# Assay results published in article PMC7525818 (Molecular Biology of the Cell, 2020).
# B1: recombinant full-length human villin (GST tag cleaved) (natural protein, UniProt P09327 1-827, looked up)
# chain: MTKLSAQVKGSLNITTPGLQIWRIEAMQMVPVPSSTFGSFFDGDCYIILAIHKTASSLSYDIHYWIGQDSSLDEQGAAAIYTTQMDDFLKGRAVQHREVQGNESEAFRGYFKQGLVIRKGGVASGMKHVETNSYDVQRLLHVKGKRNVVAGEVEMSWKSFNRGDVFLLDLGKLIIQWNGPESTRMERLRGMTLAKEIRDQERGGRTYVGVVDGENELASPKLMEVMNHVLGKRRELKAAVPDTVVEPALKAALKLYHVSDSEGNLVVREVATRPLTQDLLSHEDCYILDQGGLKIYVWKGKKANEQEKKGAMSHALNFIKAKQYPPSTQVEVQNDGAESAVFQQLFQKWTASNRTSGLGKTHTVGSVAKVEQVKFDATSMHVKPQVAAQQKMVDDGSGEVQVWRIENLELVPVDSKWLGHFYGGDCYLLLYTYLIGEKQHYLLYVWQGSQASQDEITASAYQAVILDQKYNGEPVQIRVPMGKEPPHLMSIFKGRMVVYQGGTSRTNNLETGPSTRLFQVQGTGANNTKAFEVPARANFLNSNDVFVLKTQSCCYLWCGKGCSGDEREMAKMVADTISRTEKQVVVEGQEPANFWMALGGKAPYANTKRLQEENLVITPRLFECSNKTGRFLATEIPDFNQDDLEEDDVFLLDVWDQVFFWIGKHANEEEKKAAATTAQEYLKTHPSGRDPETPIIVVKQGHEPPTFTGWFLAWDPFKWSNTKSYEDLKAELGNSRDWSQITAEVTSPKVDVFNANSNLSSGPLPIFPLEQLVNKPVEELPEGVDPSRKEEHLSIEDFTQAFGMTPAAFSALPRWKQQNLKKEKGLF
# B2: recombinant full-length human advillin (GST tag cleaved) (natural protein, UniProt O75366 1-819, looked up)
# chain: MPLTSAFRAVDNDPGIIVWRIEKMELALVPVSAHGNFYEGDCYVILSTRRVASLLSQDIHFWIGKDSSQDEQSCAAIYTTQLDDYLGGSPVQHREVQYHESDTFRGYFKQGIIYKQGGVASGMKHVETNTYDVKRLLHVKGKRNIRATEVEMSWDSFNRGDVFLLDLGKVIIQWNGPESNSGERLKAMLLAKDIRDRERGGRAKIGVIEGDKEAASPELMKVLQDTLGRRSIIKPTVPDEIIDQKQKSTIMLYHISDSAGQLAVTEVATRPLVQDLLNHDDCYILDQSGTKIYVWKGKGATKAEKQAAMSKALGFIKMKSYPSSTNVETVNDGAESAMFKQLFQKWSVKDQTMGLGKTFSIGKIAKVFQDKFDVTLLHTKPEVAAQERMVDDGNGKVEVWRIENLELVPVEYQWYGFFYGGDCYLVLYTYEVNGKPHHILYIWQGRHASQDELAASAYQAVEVDRQFDGAAVQVRVRMGTEPRHFMAIFKGKLVIFEGGTSRKGNAEPDPPVRLFQIHGNDKSNTKAVEVPAFASSLNSNDVFLLRTQAEHYLWYGKGSSGDERAMAKELASLLCDGSENTVAEGQEPAEFWDLLGGKTPYANDKRLQQEILDVQSRLFECSNKTGQFVVTEITDFTQDDLNPTDVMLLDTWDQVFLWIGAEANATEKESALATAQQYLHTHPSGRDPDTPILIIKQGFEPPIFTGWFLAWDPNIWSAGKTYEQLKEELGDAAAIMRITADMKNATLSLNSNDSEPKYYPIAVLLKNQNQELPEDVNPAKKENYLSEQDFVSVFGITRGQFAALPGWKQLQMKKEKGLF
# Molecular target: the molecule itself
# Assay: cross-linking
Protein,stoichiometry N,binding result
B1,2,
B2,,binds
